{"source": "paper PMC5004899", "about": "“Architecture of the caveolar coat complex” (Journal of Cell Science, 2016)", "molecular_target": "the molecule itself", "experiment": "cross-linking; DSP cross-linking in live HeLa cells; purified 80S-CCC; partial reduction of DSP crosslinks by titration of DTT; western blots"}
{"protein": "cavin-1 (natural protein, human (endogenous in HeLa), UniProt Q6NZI2-1 1-390, looked up, DSP-modified lysine residues (seven of 11 lysines in the HR1 domain, six of 17 in the HR2 domain; marked in Fig. 1D), human cavin-1 (PTRF), NP_036364.2; HR1 domain amino acids 49-163, HR2 domain amino acids 210-300; Detected with rabbit anti-PTRF (Abcam ab48824); also called PTRF; source: endogenous, HeLa lysate (cells DSP-cross-linked alive)) MEDPTLYIVERPLPGYPDAEAPEPSSAGAQAAEEPSGAGSEELIKSDQVNGVLVLSLLDKIIGAVDQIQLTQAQLEERQAEMEGAVQSIQGELSKLGKAHATTSNTVSKLLEKVRKVSVNVKTVRGSLERQAGQIKKLEVNEAELLRRRNFKVMIYQDEVKLPAKLSISKSLKESEALPEKEGEELGEGERPEEDAAALELSSDEAVEVEEVIEESRAERIKRSGLRRVDDFKKAFSKEKMEKTKVRTRENLEKTRLKTKENLEKTRHTLEKRMNKLGTRLVPAERREKLKTSRDKLRKSFTPDHVVYARSKTAVYKVPPFTFHVKKIREGQVEVLKATEMVEVGADDDEGGAERGEAGDLRRGSSPDVHALLEITEESDAVLVDKSDSD", "values": [{"measurement": "stoichiometry N", "result": 3}]}
